Assay results taken from the supplement of paper PMC10065799, “High-throughput profiling of sequence recognition by tyrosine kinases and SH2 domains using bacterial peptide display” (eLife, 2023).

Experiments:
[1] = molecular target: c-Src SH2; experiment: SH2 binding enrichment of the phosphorylated peptide, bacterial display (enrichment ratio); higher = better substrate or ligand; peptides without Tyr show the background
[2] = molecular target: Grb2 SH2 (UniProt P62993); experiment: as above
[3] = molecular target: SHP2-C SH2; experiment: as above
[4] = molecular target: EPHB2 (UniProt P29323); experiment: phosphorylation enrichment, bacterial display (enrichment ratio); higher = better substrate or ligand; peptides without Tyr show the background
[5] = system: AncSZ; experiment: as above
[6] = molecular target: FGFR1 (UniProt P11362); experiment: as above
FGFR1, sequence (P11362 whole entry, looked up): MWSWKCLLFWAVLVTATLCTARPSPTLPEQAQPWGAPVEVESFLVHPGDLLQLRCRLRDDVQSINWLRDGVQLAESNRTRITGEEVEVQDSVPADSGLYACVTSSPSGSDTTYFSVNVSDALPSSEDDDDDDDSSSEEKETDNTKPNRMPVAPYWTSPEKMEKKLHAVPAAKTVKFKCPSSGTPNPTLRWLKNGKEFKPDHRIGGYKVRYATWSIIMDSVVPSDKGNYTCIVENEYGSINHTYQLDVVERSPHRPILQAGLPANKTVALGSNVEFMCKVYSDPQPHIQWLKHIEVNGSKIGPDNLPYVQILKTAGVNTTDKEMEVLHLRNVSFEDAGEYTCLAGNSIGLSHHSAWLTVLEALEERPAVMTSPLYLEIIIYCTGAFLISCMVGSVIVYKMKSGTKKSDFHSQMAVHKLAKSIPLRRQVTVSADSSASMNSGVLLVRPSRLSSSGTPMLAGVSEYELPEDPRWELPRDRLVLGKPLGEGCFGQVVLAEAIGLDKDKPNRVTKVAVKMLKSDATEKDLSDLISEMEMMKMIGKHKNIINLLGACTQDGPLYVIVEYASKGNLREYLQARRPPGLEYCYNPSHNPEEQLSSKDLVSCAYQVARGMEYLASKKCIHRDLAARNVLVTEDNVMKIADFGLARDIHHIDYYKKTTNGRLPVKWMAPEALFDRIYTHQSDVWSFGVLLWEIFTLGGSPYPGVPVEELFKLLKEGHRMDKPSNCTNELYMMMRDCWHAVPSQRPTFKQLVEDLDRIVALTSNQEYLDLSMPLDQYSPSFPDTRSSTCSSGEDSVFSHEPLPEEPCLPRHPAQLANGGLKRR

[7] = molecular target: Jak2 (UniProt O60674); experiment: as above
Jak2, sequence (O60674 whole entry, looked up): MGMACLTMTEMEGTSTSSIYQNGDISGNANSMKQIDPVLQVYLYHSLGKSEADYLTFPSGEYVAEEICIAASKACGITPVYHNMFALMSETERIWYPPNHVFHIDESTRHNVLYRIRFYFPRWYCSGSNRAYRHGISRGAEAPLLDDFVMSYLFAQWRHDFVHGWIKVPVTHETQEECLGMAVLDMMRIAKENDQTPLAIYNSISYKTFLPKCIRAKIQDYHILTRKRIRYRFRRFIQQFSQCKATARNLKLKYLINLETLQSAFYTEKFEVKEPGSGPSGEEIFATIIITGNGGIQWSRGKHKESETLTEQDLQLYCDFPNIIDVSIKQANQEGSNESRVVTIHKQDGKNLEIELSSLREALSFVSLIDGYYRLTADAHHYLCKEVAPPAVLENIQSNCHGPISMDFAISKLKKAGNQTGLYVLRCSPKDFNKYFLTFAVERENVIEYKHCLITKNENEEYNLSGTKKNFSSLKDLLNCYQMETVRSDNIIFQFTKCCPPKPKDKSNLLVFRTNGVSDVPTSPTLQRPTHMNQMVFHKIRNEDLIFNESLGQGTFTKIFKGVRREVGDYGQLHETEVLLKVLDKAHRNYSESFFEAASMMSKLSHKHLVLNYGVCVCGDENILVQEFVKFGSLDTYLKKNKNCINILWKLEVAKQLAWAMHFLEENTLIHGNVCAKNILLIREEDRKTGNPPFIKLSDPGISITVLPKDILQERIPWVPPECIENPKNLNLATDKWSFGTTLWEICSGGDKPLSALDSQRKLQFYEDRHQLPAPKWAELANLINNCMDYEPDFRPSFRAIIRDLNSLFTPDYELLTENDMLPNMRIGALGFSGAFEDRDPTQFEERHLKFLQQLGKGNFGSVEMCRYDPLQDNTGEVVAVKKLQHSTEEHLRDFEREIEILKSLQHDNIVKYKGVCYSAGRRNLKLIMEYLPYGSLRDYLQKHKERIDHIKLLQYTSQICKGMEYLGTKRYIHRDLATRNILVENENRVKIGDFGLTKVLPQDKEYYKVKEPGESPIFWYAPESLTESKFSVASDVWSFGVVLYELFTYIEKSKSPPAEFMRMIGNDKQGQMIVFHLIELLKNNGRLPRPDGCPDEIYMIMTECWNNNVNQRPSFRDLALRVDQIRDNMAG

[8] = molecular target: MERTK (UniProt Q12866); experiment: as above
MERTK, sequence (Q12866 whole entry, looked up): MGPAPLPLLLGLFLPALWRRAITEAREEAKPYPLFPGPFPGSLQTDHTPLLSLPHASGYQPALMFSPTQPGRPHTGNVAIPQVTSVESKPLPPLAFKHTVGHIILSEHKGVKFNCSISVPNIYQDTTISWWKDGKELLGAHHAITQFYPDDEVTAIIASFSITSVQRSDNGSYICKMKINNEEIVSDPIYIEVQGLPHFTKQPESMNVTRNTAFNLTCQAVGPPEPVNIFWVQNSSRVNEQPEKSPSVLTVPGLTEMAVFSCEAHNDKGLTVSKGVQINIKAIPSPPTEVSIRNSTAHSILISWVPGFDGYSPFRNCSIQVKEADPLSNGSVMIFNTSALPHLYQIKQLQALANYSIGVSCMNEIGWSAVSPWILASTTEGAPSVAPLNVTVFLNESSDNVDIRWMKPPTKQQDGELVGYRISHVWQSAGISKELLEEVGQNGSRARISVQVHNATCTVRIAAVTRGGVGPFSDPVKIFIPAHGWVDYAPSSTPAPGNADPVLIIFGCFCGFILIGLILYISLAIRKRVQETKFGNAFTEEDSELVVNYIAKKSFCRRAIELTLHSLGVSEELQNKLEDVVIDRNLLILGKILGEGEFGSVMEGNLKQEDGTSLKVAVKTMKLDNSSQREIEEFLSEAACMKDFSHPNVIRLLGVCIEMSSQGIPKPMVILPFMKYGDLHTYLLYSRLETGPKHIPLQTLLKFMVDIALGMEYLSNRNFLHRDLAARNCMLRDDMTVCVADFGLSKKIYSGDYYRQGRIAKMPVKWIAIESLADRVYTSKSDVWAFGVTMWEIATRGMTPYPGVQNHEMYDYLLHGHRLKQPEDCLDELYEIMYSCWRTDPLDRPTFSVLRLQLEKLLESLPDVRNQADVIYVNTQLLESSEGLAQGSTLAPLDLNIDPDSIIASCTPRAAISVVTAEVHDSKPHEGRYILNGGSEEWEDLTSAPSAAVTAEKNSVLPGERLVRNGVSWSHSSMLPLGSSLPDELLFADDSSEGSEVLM

[9] = system: c-Abl (mouse); experiment: as above
[10] = system: c-Src; experiment: as above
[11] = molecular target: EPHB1 (UniProt P54762); experiment: as above
[12] = system: Fer (mouse); experiment: as above
[13] = molecular target: FGFR3 (UniProt P22607); experiment: as above
[14] = molecular target: Fyn (UniProt P06241); experiment: as above
Fyn, sequence (P06241 whole entry, looked up): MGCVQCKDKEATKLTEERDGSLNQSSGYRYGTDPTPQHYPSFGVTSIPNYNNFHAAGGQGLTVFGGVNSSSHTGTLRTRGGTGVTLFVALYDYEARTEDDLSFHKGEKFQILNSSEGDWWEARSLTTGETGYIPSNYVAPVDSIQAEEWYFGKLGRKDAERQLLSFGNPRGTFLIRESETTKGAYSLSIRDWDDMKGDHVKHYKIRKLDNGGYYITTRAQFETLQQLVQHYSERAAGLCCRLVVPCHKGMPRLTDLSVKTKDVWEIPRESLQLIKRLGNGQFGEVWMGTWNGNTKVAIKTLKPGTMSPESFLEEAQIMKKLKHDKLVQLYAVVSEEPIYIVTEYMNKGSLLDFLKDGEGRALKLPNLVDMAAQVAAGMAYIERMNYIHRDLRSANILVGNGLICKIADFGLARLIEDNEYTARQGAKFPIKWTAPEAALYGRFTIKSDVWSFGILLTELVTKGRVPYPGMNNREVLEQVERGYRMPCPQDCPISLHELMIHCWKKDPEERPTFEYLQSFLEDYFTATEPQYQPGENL

[15] = molecular target: Fes (UniProt P07332); experiment: as above
Fes, sequence (P07332 whole entry, looked up): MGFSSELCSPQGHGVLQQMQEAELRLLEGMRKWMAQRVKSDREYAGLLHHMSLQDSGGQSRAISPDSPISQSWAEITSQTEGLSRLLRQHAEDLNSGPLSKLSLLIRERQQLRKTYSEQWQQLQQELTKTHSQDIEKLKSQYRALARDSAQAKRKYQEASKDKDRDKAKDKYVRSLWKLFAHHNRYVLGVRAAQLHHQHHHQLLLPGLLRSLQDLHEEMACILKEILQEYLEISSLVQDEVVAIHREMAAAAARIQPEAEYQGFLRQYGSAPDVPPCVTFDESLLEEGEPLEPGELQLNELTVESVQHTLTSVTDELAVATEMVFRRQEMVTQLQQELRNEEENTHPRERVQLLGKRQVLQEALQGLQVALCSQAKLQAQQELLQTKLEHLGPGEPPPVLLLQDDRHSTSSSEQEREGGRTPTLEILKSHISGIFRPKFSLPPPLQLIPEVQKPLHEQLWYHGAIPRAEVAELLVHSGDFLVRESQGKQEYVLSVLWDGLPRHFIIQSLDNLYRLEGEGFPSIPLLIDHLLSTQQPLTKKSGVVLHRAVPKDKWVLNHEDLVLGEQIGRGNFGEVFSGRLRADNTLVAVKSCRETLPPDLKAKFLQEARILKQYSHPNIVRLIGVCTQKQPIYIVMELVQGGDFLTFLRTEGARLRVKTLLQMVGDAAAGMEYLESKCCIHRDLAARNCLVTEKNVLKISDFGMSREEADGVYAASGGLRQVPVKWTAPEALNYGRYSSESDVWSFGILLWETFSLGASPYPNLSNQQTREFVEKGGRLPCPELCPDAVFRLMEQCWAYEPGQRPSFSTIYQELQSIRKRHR

[16] = molecular target: Hck (UniProt P08631); experiment: as above
Hck, sequence (P08631 whole entry, looked up, the tested form may be a part): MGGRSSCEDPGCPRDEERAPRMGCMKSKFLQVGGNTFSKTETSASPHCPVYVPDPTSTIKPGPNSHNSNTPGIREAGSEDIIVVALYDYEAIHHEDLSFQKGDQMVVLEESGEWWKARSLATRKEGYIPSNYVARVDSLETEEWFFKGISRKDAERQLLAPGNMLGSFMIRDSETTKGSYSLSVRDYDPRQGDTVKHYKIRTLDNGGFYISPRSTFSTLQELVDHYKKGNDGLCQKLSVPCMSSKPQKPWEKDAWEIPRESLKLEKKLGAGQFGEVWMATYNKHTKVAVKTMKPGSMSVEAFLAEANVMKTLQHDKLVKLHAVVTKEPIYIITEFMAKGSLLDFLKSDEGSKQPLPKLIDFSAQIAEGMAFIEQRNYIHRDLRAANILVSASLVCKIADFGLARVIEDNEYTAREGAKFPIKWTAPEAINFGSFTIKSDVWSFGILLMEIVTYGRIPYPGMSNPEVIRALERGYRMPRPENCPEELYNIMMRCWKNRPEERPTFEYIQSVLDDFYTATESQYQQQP
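Wherever SH2 binding enrichment of the phosphorylated peptide, bacterial display is given: peptide library displayed on the E. coli surface as eCPX fusions, selected cells deep-sequenced, score is each peptide's frequency after selection divided by its frequency in the input.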
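Wherever phosphorylation enrichment, bacterial display is given: 11-residue human phosphosite peptides and single-mutation variants displayed on the E. coli surface, counted by deep sequencing, each peptide's frequency after selection divided by its frequency in the unselected input library; frequency after pTyr selection over input frequency; kinase dosed for 20-30% of maximal phosphorylation in three min.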

Grb2 SH2, sequence (P62993 whole entry, looked up): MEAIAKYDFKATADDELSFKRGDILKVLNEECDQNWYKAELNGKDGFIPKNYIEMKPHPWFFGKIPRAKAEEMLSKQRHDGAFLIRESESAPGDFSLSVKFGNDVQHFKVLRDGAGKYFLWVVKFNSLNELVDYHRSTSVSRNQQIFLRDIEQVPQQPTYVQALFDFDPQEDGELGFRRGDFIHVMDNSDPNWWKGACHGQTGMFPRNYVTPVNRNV

Sequence: AAPAAHDAADT [GAMT_Y27_Y27H]
- SH2 binding enrichment [1]: 0.478
- SH2 binding enrichment [2]: 1
- SH2 binding enrichment [3]: 0.8
- phosphorylation enrichment [4]: 0.602
- phosphorylation enrichment [5]: 0.618
- phosphorylation enrichment [6]: 0.403
- phosphorylation enrichment [7]: 0.531
- phosphorylation enrichment [8]: 0.45
- phosphorylation enrichment [9]: 0.48
- phosphorylation enrichment [10]: 0.32
- phosphorylation enrichment [11]: 0.387
- phosphorylation enrichment [12]: 0.418
- phosphorylation enrichment [13]: 0.452
- phosphorylation enrichment [14]: 0.45
- phosphorylation enrichment [15]: 0.665
- phosphorylation enrichment [16]: 0.749

Sequence: ENELTYYCYKK [CD59_Y86_C89Y]
- SH2 binding enrichment [1]: 0.45
- SH2 binding enrichment [2]: 0.793
- SH2 binding enrichment [3]: 0.65
- phosphorylation enrichment [4]: 0.752
- phosphorylation enrichment [5]: 1.92
- phosphorylation enrichment [6]: 1.68
- phosphorylation enrichment [7]: 2.25
- phosphorylation enrichment [8]: 1.36
- phosphorylation enrichment [9]: 6.18
- phosphorylation enrichment [10]: 5.18
- phosphorylation enrichment [11]: 0.794
- phosphorylation enrichment [12]: 0.685
- phosphorylation enrichment [13]: 1.53
- phosphorylation enrichment [14]: 4.74
- phosphorylation enrichment [15]: 1.69
- phosphorylation enrichment [16]: 4.79

Sequence: LQLLGYRPVFS [CHST6_Y358_YF]
- SH2 binding enrichment [1]: 0.68
- SH2 binding enrichment [2]: 0.806
- SH2 binding enrichment [3]: 0.626
- phosphorylation enrichment [4]: 0.793
- phosphorylation enrichment [5]: 1.17
- phosphorylation enrichment [6]: 0.535
- phosphorylation enrichment [7]: 1.15
- phosphorylation enrichment [8]: 0.502
- phosphorylation enrichment [9]: 0.865
- phosphorylation enrichment [10]: 0.487
- phosphorylation enrichment [11]: 0.598
- phosphorylation enrichment [12]: 0.57
- phosphorylation enrichment [13]: 0.707
- phosphorylation enrichment [14]: 0.451
- phosphorylation enrichment [15]: 1.42
- phosphorylation enrichment [16]: 0.697

Sequence: LEEFQYIGESQ [MSH2_Y856]
- SH2 binding enrichment [1]: 0.535
- SH2 binding enrichment [2]: 0.842
- SH2 binding enrichment [3]: 0.688
- phosphorylation enrichment [4]: 1.19
- phosphorylation enrichment [5]: 2.09
- phosphorylation enrichment [6]: 0.733
- phosphorylation enrichment [7]: 2.43
- phosphorylation enrichment [8]: 0.61
- phosphorylation enrichment [9]: 1.25
- phosphorylation enrichment [10]: 0.882
- phosphorylation enrichment [11]: 1.03
- phosphorylation enrichment [12]: 0.918
- phosphorylation enrichment [13]: 1.11
- phosphorylation enrichment [14]: 0.722
- phosphorylation enrichment [15]: 1.62
- phosphorylation enrichment [16]: 0.558

Sequence: FGGLRCGFGVL [KRTAP20-2_Y13_Y13C_YF]
- SH2 binding enrichment [1]: 0.469
- SH2 binding enrichment [2]: 0.69
- SH2 binding enrichment [3]: 0.609
- phosphorylation enrichment [4]: 0.537
- phosphorylation enrichment [5]: 0.91
- phosphorylation enrichment [6]: 0.45
- phosphorylation enrichment [7]: 0.901
- phosphorylation enrichment [8]: 0.34
- phosphorylation enrichment [9]: 0.673
- phosphorylation enrichment [10]: 0.37
- phosphorylation enrichment [11]: 0.49
- phosphorylation enrichment [12]: 0.46
- phosphorylation enrichment [13]: 0.686
- phosphorylation enrichment [14]: 0.349
- phosphorylation enrichment [15]: 1.14
- phosphorylation enrichment [16]: 0.403

Sequence: RNIQQYNSFVS [PRKAR1A_Y373]
- SH2 binding enrichment [1]: 0.602
- SH2 binding enrichment [2]: 0.782
- SH2 binding enrichment [3]: 0.683
- phosphorylation enrichment [4]: 0.611
- phosphorylation enrichment [5]: 0.768
- phosphorylation enrichment [6]: 0.573
- phosphorylation enrichment [7]: 0.667
- phosphorylation enrichment [8]: 0.457
- phosphorylation enrichment [9]: 0.986
- phosphorylation enrichment [10]: 0.589
- phosphorylation enrichment [11]: 0.391
- phosphorylation enrichment [12]: 0.534
- phosphorylation enrichment [13]: 0.787
- phosphorylation enrichment [14]: 0.648
- phosphorylation enrichment [15]: 0.743
- phosphorylation enrichment [16]: 0.64

Sequence: VRFMEYETQVK [TARDBP_Y155_T153M]
- SH2 binding enrichment [1]: 0.52
- SH2 binding enrichment [2]: 0.888
- SH2 binding enrichment [3]: 0.958
- phosphorylation enrichment [4]: 1.14
- phosphorylation enrichment [5]: 0.943
- phosphorylation enrichment [6]: 0.394
- phosphorylation enrichment [7]: 0.979
- phosphorylation enrichment [8]: 0.373
- phosphorylation enrichment [9]: 0.73
- phosphorylation enrichment [10]: 0.481
- phosphorylation enrichment [11]: 1.25
- phosphorylation enrichment [12]: 0.418
- phosphorylation enrichment [13]: 0.694
- phosphorylation enrichment [14]: 0.384
- phosphorylation enrichment [15]: 0.981
- phosphorylation enrichment [16]: 0.459

Sequence: NDHHFYLEGTL [ALDOB_Y223_V222F]
- SH2 binding enrichment [1]: 0.67
- SH2 binding enrichment [2]: 0.787
- SH2 binding enrichment [3]: 0.745
- phosphorylation enrichment [4]: 0.547
- phosphorylation enrichment [5]: 0.939
- phosphorylation enrichment [6]: 0.489
- phosphorylation enrichment [7]: 0.964
- phosphorylation enrichment [8]: 0.409
- phosphorylation enrichment [9]: 0.646
- phosphorylation enrichment [10]: 0.392
- phosphorylation enrichment [11]: 0.497
- phosphorylation enrichment [12]: 0.498
- phosphorylation enrichment [13]: 0.696
- phosphorylation enrichment [14]: 0.398
- phosphorylation enrichment [15]: 1.19
- phosphorylation enrichment [16]: 0.43

Sequence: VSLLPYFPAIM [IPO4_Y518_A513V]
- SH2 binding enrichment [1]: 0.602
- SH2 binding enrichment [2]: 0.902
- SH2 binding enrichment [3]: 0.848
- phosphorylation enrichment [4]: 0.657
- phosphorylation enrichment [5]: 1.12
- phosphorylation enrichment [6]: 0.719
- phosphorylation enrichment [7]: 2.06
- phosphorylation enrichment [8]: 0.369
- phosphorylation enrichment [9]: 0.754
- phosphorylation enrichment [10]: 0.443
- phosphorylation enrichment [11]: 0.646
- phosphorylation enrichment [12]: 0.508
- phosphorylation enrichment [13]: 0.873
- phosphorylation enrichment [14]: 0.541
- phosphorylation enrichment [15]: 1.32
- phosphorylation enrichment [16]: 0.541

Sequence: NELTYYCYKKD [CD59_Y87_C89Y]
- SH2 binding enrichment [1]: 0.482
- SH2 binding enrichment [2]: 0.728
- SH2 binding enrichment [3]: 0.505
- phosphorylation enrichment [4]: 0.826
- phosphorylation enrichment [5]: 1.81
- phosphorylation enrichment [6]: 2.1
- phosphorylation enrichment [7]: 2
- phosphorylation enrichment [8]: 1.77
- phosphorylation enrichment [9]: 5.45
- phosphorylation enrichment [10]: 4.48
- phosphorylation enrichment [11]: 0.804
- phosphorylation enrichment [12]: 0.692
- phosphorylation enrichment [13]: 1.98
- phosphorylation enrichment [14]: 3.84
- phosphorylation enrichment [15]: 1.51
- phosphorylation enrichment [16]: 4.17

Sequence: MCDSHYLESRF [CLK1_Y56_S61F]
- SH2 binding enrichment [1]: 0.66
- SH2 binding enrichment [2]: 0.905
- SH2 binding enrichment [3]: 0.854
- phosphorylation enrichment [4]: 0.568
- phosphorylation enrichment [5]: 0.78
- phosphorylation enrichment [6]: 0.509
- phosphorylation enrichment [7]: 0.793
- phosphorylation enrichment [8]: 0.504
- phosphorylation enrichment [9]: 0.608
- phosphorylation enrichment [10]: 0.443
- phosphorylation enrichment [11]: 0.447
- phosphorylation enrichment [12]: 0.44
- phosphorylation enrichment [13]: 0.603
- phosphorylation enrichment [14]: 0.472
- phosphorylation enrichment [15]: 0.867
- phosphorylation enrichment [16]: 0.522

Sequence: EEHIPCTHMNG [INSR_Y1361_Y1361C]
- SH2 binding enrichment [1]: 0.649
- SH2 binding enrichment [2]: 0.709
- SH2 binding enrichment [3]: 0.7
- phosphorylation enrichment [4]: 0.597
- phosphorylation enrichment [5]: 0.916
- phosphorylation enrichment [6]: 0.592
- phosphorylation enrichment [7]: 1.03
- phosphorylation enrichment [8]: 0.552
- phosphorylation enrichment [9]: 0.865
- phosphorylation enrichment [10]: 0.497
- phosphorylation enrichment [11]: 0.581
- phosphorylation enrichment [12]: 0.612
- phosphorylation enrichment [13]: 0.632
- phosphorylation enrichment [14]: 0.436
- phosphorylation enrichment [15]: 0.867
- phosphorylation enrichment [16]: 0.435

Sequence: DAICFYRMENA [NPHS2_Y195_YF]
- SH2 binding enrichment [1]: 0.56
- SH2 binding enrichment [2]: 0.785
- SH2 binding enrichment [3]: 0.805
- phosphorylation enrichment [4]: 0.544
- phosphorylation enrichment [5]: 1.14
- phosphorylation enrichment [6]: 0.624
- phosphorylation enrichment [7]: 1.19
- phosphorylation enrichment [8]: 0.482
- phosphorylation enrichment [9]: 0.914
- phosphorylation enrichment [10]: 2.96
- phosphorylation enrichment [11]: 0.645
- phosphorylation enrichment [12]: 0.592
- phosphorylation enrichment [13]: 0.85
- phosphorylation enrichment [14]: 0.726
- phosphorylation enrichment [15]: 1.47
- phosphorylation enrichment [16]: 0.624

Sequence: KKLHEYNTQFQ [PIK3R1_Y452]
- SH2 binding enrichment [1]: 0.592
- SH2 binding enrichment [2]: 1
- SH2 binding enrichment [3]: 0.86
- phosphorylation enrichment [4]: 0.385
- phosphorylation enrichment [5]: 0.55
- phosphorylation enrichment [6]: 0.322
- phosphorylation enrichment [7]: 0.43
- phosphorylation enrichment [8]: 0.348
- phosphorylation enrichment [9]: 0.477
- phosphorylation enrichment [10]: 0.42
- phosphorylation enrichment [11]: 0.323
- phosphorylation enrichment [12]: 0.389
- phosphorylation enrichment [13]: 0.366
- phosphorylation enrichment [14]: 0.39
- phosphorylation enrichment [15]: 0.541
- phosphorylation enrichment [16]: 0.367

Sequence: FTAVGYHKHFT [NOMO1_Y1137_I1141F]
- SH2 binding enrichment [1]: 1.04
- SH2 binding enrichment [2]: 0.865
- SH2 binding enrichment [3]: 1.5
- phosphorylation enrichment [4]: 0.366
- phosphorylation enrichment [5]: 0.614
- phosphorylation enrichment [6]: 0.449
- phosphorylation enrichment [7]: 0.782
- phosphorylation enrichment [8]: 0.424
- phosphorylation enrichment [9]: 0.491
- phosphorylation enrichment [10]: 0.552
- phosphorylation enrichment [11]: 0.252
- phosphorylation enrichment [12]: 0.449
- phosphorylation enrichment [13]: 0.589
- phosphorylation enrichment [14]: 0.431
- phosphorylation enrichment [15]: 0.935
- phosphorylation enrichment [16]: 0.426

Sequence: EILLSYPRTGF [TGM1_Y365_L366P_YF]
- SH2 binding enrichment [1]: 0.528
- SH2 binding enrichment [2]: 0.821
- SH2 binding enrichment [3]: 0.83
- phosphorylation enrichment [4]: 0.533
- phosphorylation enrichment [5]: 0.695
- phosphorylation enrichment [6]: 0.488
- phosphorylation enrichment [7]: 0.872
- phosphorylation enrichment [8]: 0.411
- phosphorylation enrichment [9]: 0.515
- phosphorylation enrichment [10]: 0.356
- phosphorylation enrichment [11]: 0.562
- phosphorylation enrichment [12]: 0.397
- phosphorylation enrichment [13]: 0.555
- phosphorylation enrichment [14]: 0.541
- phosphorylation enrichment [15]: 0.935
- phosphorylation enrichment [16]: 0.534

Sequence: QPDLLYDHIQP [TRRAP_Y862_F860L]
- SH2 binding enrichment [1]: 0.832
- SH2 binding enrichment [2]: 0.733
- SH2 binding enrichment [3]: 0.517
- phosphorylation enrichment [4]: 18.1
- phosphorylation enrichment [5]: 3.04
- phosphorylation enrichment [6]: 1.02
- phosphorylation enrichment [7]: 1.27
- phosphorylation enrichment [8]: 14.4
- phosphorylation enrichment [9]: 3.03
- phosphorylation enrichment [10]: 10.3
- phosphorylation enrichment [11]: 15.2
- phosphorylation enrichment [12]: 25
- phosphorylation enrichment [13]: 1.5
- phosphorylation enrichment [14]: 13.5
- phosphorylation enrichment [15]: 2.01
- phosphorylation enrichment [16]: 15.1
